Here are results for 34 variants from the Human Domainome abundance scans (Beltran et al. 2025).

B1: Homeobox protein cut-like 1, residues 548 to 629; numbered along this chain, P39880 (parent)
chain: GEEMDTAEIARQVKEQLIKHNIGQRIFGHYVLGLSQGSVSEILARPKPWNKLTVRGKEPFHKMKQFLSDEQNILALRSIQGR

± gives the uncertainty stated by the source.

In the data set the parent is B1. Description: abundance fitness (aPCA) (normalised: wild type 0, dead -1); higher = more abundant; growth selection in yeast, the domain comes from the species named. To be noted: Homo sapiens.
On to GEEMDTAEIARQVKEQLIKHNIGQRIFGHYVLGLSQGSVSEILARPKPWNKLTVRYKEPFHKMKQFLSDEQNILALRSIQGR [G56Y], for which the abundance fitness is -0.313 ± 0.078.

Regarding GEEMDTAEIARQVKEQLIKHNIGQRIFGHYVLGLSQGSVSEILARPKPWNKLTVRWKEPFHKMKQFLSDEQNILALRSIQGR [G56W], the abundance fitness is -0.265 ± 0.031.

Regarding GEEMDTAEIARQVKEQLIKHNIGQRIFGHYVLGLSQGSVSEILARPKPWNKLTVRTKEPFHKMKQFLSDEQNILALRSIQGR [G56T], the abundance fitness is -0.333 ± 0.042.

Take GEEMDTAEIARQVKEQLIKHNIGQRIFGHYVLGLSQGSVSEILARPKPWNKLTVRVKEPFHKMKQFLSDEQNILALRSIQGR [G56V]: the abundance fitness was -0.343 ± 0.029.

With GEEMDTAEIARQVKEQLIKHNIGQRIFGHYVLGLSQGSVSEILARPKPWNKLTVRGTEPFHKMKQFLSDEQNILALRSIQGR [K57T], the abundance fitness is -0.408 ± 0.042.

As to GEEMDTAEIARQVKEQLIKHNIGQRIFGHYVLGLSQGSVSEILARPKPWNKLTVRGREPFHKMKQFLSDEQNILALRSIQGR [K57R], the abundance fitness turned out to be 0.013 ± 0.023.

As for GEEMDTAEIARQVKEQLIKHNIGQRIFGHYVLGLSQGSVSEILARPKPWNKLTVRGHEPFHKMKQFLSDEQNILALRSIQGR [K57H], the abundance fitness was -0.426 ± 0.095.

For the variant GEEMDTAEIARQVKEQLIKHNIGQRIFGHYVLGLSQGSVSEILARPKPWNKLTVRGLEPFHKMKQFLSDEQNILALRSIQGR [K57L], the abundance fitness was -0.288 ± 0.034.

Regarding GEEMDTAEIARQVKEQLIKHNIGQRIFGHYVLGLSQGSVSEILARPKPWNKLTVRGCEPFHKMKQFLSDEQNILALRSIQGR [K57C], the abundance fitness was -0.393 ± 0.066.

In the case of GEEMDTAEIARQVKEQLIKHNIGQRIFGHYVLGLSQGSVSEILARPKPWNKLTVRGYEPFHKMKQFLSDEQNILALRSIQGR [K57Y], the abundance fitness is -0.528 ± 0.1.

For the variant GEEMDTAEIARQVKEQLIKHNIGQRIFGHYVLGLSQGSVSEILARPKPWNKLTVRGFEPFHKMKQFLSDEQNILALRSIQGR [K57F], the abundance fitness was -0.742 ± 0.18.

Consider GEEMDTAEIARQVKEQLIKHNIGQRIFGHYVLGLSQGSVSEILARPKPWNKLTVRGNEPFHKMKQFLSDEQNILALRSIQGR [K57N], for which the abundance fitness is -0.601 ± 0.095.

For GEEMDTAEIARQVKEQLIKHNIGQRIFGHYVLGLSQGSVSEILARPKPWNKLTVRGPEPFHKMKQFLSDEQNILALRSIQGR [K57P], the abundance fitness was -0.663 ± 0.07.

Turning to GEEMDTAEIARQVKEQLIKHNIGQRIFGHYVLGLSQGSVSEILARPKPWNKLTVRGVEPFHKMKQFLSDEQNILALRSIQGR [K57V], the abundance fitness was -0.455 ± 0.034.

Take GEEMDTAEIARQVKEQLIKHNIGQRIFGHYVLGLSQGSVSEILARPKPWNKLTVRGEEPFHKMKQFLSDEQNILALRSIQGR [K57E]: the abundance fitness is -0.476 ± 0.036.

In the case of GEEMDTAEIARQVKEQLIKHNIGQRIFGHYVLGLSQGSVSEILARPKPWNKLTVRGWEPFHKMKQFLSDEQNILALRSIQGR [K57W], the abundance fitness is -0.526 ± 0.04.

For the variant GEEMDTAEIARQVKEQLIKHNIGQRIFGHYVLGLSQGSVSEILARPKPWNKLTVRGIEPFHKMKQFLSDEQNILALRSIQGR [K57I], the abundance fitness was -0.284 ± 0.082.

Regarding GEEMDTAEIARQVKEQLIKHNIGQRIFGHYVLGLSQGSVSEILARPKPWNKLTVRGAEPFHKMKQFLSDEQNILALRSIQGR [K57A], the abundance fitness is -0.2 ± 0.029.

For GEEMDTAEIARQVKEQLIKHNIGQRIFGHYVLGLSQGSVSEILARPKPWNKLTVRGMEPFHKMKQFLSDEQNILALRSIQGR [K57M], the abundance fitness is -0.152 ± 0.041.

Consider GEEMDTAEIARQVKEQLIKHNIGQRIFGHYVLGLSQGSVSEILARPKPWNKLTVRGQEPFHKMKQFLSDEQNILALRSIQGR [K57Q], for which the abundance fitness is 0.057 ± 0.036.

As to GEEMDTAEIARQVKEQLIKHNIGQRIFGHYVLGLSQGSVSEILARPKPWNKLTVRGGEPFHKMKQFLSDEQNILALRSIQGR [K57G], the abundance fitness was -0.525 ± 0.028.

Take GEEMDTAEIARQVKEQLIKHNIGQRIFGHYVLGLSQGSVSEILARPKPWNKLTVRGSEPFHKMKQFLSDEQNILALRSIQGR [K57S]: the abundance fitness is -0.334 ± 0.035.

Take GEEMDTAEIARQVKEQLIKHNIGQRIFGHYVLGLSQGSVSEILARPKPWNKLTVRGKLPFHKMKQFLSDEQNILALRSIQGR [E58L]: the abundance fitness was -0.121 ± 0.032.

On to GEEMDTAEIARQVKEQLIKHNIGQRIFGHYVLGLSQGSVSEILARPKPWNKLTVRGKDPFHKMKQFLSDEQNILALRSIQGR [E58D], for which the abundance fitness was -0.105 ± 0.051.

GEEMDTAEIARQVKEQLIKHNIGQRIFGHYVLGLSQGSVSEILARPKPWNKLTVRGKNPFHKMKQFLSDEQNILALRSIQGR [E58N]: the abundance fitness was -0.27 ± 0.071.

Consider GEEMDTAEIARQVKEQLIKHNIGQRIFGHYVLGLSQGSVSEILARPKPWNKLTVRGKHPFHKMKQFLSDEQNILALRSIQGR [E58H], for which the abundance fitness was -0.618 ± 0.11.

GEEMDTAEIARQVKEQLIKHNIGQRIFGHYVLGLSQGSVSEILARPKPWNKLTVRGKAPFHKMKQFLSDEQNILALRSIQGR [E58A]: the abundance fitness was -0.168 ± 0.03.

For GEEMDTAEIARQVKEQLIKHNIGQRIFGHYVLGLSQGSVSEILARPKPWNKLTVRGKPPFHKMKQFLSDEQNILALRSIQGR [E58P], the abundance fitness was -0.819 ± 0.087.

Take GEEMDTAEIARQVKEQLIKHNIGQRIFGHYVLGLSQGSVSEILARPKPWNKLTVRGKIPFHKMKQFLSDEQNILALRSIQGR [E58I]: the abundance fitness is -0.234 ± 0.085.

As to GEEMDTAEIARQVKEQLIKHNIGQRIFGHYVLGLSQGSVSEILARPKPWNKLTVRGKGPFHKMKQFLSDEQNILALRSIQGR [E58G], the abundance fitness is -0.35 ± 0.026.

On to GEEMDTAEIARQVKEQLIKHNIGQRIFGHYVLGLSQGSVSEILARPKPWNKLTVRGKFPFHKMKQFLSDEQNILALRSIQGR [E58F], for which the abundance fitness is -0.416 ± 0.14.

On to GEEMDTAEIARQVKEQLIKHNIGQRIFGHYVLGLSQGSVSEILARPKPWNKLTVRGKMPFHKMKQFLSDEQNILALRSIQGR [E58M], for which the abundance fitness is -0.132 ± 0.04.

Consider GEEMDTAEIARQVKEQLIKHNIGQRIFGHYVLGLSQGSVSEILARPKPWNKLTVRGKKPFHKMKQFLSDEQNILALRSIQGR [E58K], for which the abundance fitness was -0.23 ± 0.037.

In the case of GEEMDTAEIARQVKEQLIKHNIGQRIFGHYVLGLSQGSVSEILARPKPWNKLTVRGKCPFHKMKQFLSDEQNILALRSIQGR [E58C], the abundance fitness was -0.441 ± 0.065.
